Experimental findings from PMC11025564 (The journal of physical chemistry. B, 2018) are described below.

Where a chain is given by its changes, count along the chain named. Numbers in names are those of the source.

T1: integrin β3(P685-F727) TM peptide C687S W715F (human, UniProt P05106 711-753, C687S | W715F)
T1 chain (looked up): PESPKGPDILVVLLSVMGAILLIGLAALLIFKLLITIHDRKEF

T2: integrin β3(P685-F727) TM peptide C687S W715I (human, UniProt P05106 711-753, C687S | W715I)
T2 chain (looked up): T1 chain (looked up) with F31I

T3: integrin β3(P685-F727) TM peptide C687S W715A (human, UniProt P05106 711-753, C687S | W715A)
T3 chain (looked up): T1 chain (looked up) with F31A

T4: human integrin β3(P685-F727) TM peptide incorporating β3(C687S) (human, UniProt P05106 711-753, C687S)
T4 chain (looked up): T1 chain (looked up) with F31W

T5: integrin β3(P685-F727) TM peptide C687S W715H (human, UniProt P05106 711-753, C687S | W715H)
T5 chain (looked up): T1 chain (looked up) with F31H

T6: integrin β3(P685-F727) TM peptide C687S W715Y (human, UniProt P05106 711-753, C687S | W715Y)
T6 chain (looked up): T1 chain (looked up) with F31Y

B1: human integrin αIIb(A958-P998) TM peptide (peptide)
chain: not shown
B2: integrin αIIb(A958-P998) TM peptide W967V (peptide)
chain: not shown
B3: integrin αIIb(A958-P998) TM peptide W967F (peptide)
chain: not shown
B4: integrin αIIb(A958-P998) TM peptide W967Y (peptide)
chain: not shown
B5: integrin αIIb(A958-P998) TM peptide W967H (peptide)
chain: not shown

One assay addresses T1, integrin β3(P685-F727) TM peptide C687S …. The assay is described as follows: ITC. (In general: ITC needs no label: the signal is the heat of the interaction.)
As to B1, the “KXY (association equilibrium constant on the mole fraction scale)” value is 2230 ± 50 and the dH is -17.2 ± 0.2 kcal/mol.

In another assay the target is T2, integrin β3(P685-F727) TM peptide C687S …. The experiment in a line: ITC.
As for B1, the “KXY (association equilibrium constant on the mole fraction scale)” value was 2600 ± 70 and the dH is -9.6 ± 0.1 kcal/mol.

A further assay addresses T3, integrin β3(P685-F727) TM peptide C687S …. The experiment in a line: ITC.
For B1, the “KXY (association equilibrium constant on the mole fraction scale)” value came out at 1300 ± 40 and the dH is -15.5 ± 0.3 kcal/mol.

The next assay has as its target T4, human integrin β3(P685-F727) TM peptide …. The experiment in a line: ITC.
Regarding B1, the “KXY (association equilibrium constant on the mole fraction scale)” value amounted to 3250 ± 60 and the dH is -16 ± 0.1 kcal/mol.

Take ALEERAIPIWWVLVGVLGGLLLLTILVLAMYKVGFFKRNRP (peptide, UniProt P08514 989-1029, looked up) [integrin αIIb(A958-P998) TM peptide W988Y]: the “KXY (association equilibrium constant on the mole fraction scale)” value was determined as 2320 ± 50 and the dH is -19.2 ± 0.2 kcal/mol.

For ALEERAIPIVVVLVGVLGGLLLLTILVLAMWKVGFFKRNRP (peptide, UniProt P08514 989-1029, looked up) [integrin αIIb(A958-P998) TM peptide W967V/W968V], the “KXY (association equilibrium constant on the mole fraction scale)” value was found to be 2680 ± 60 and the dH is -17.8 ± 0.2 kcal/mol.

As to ALEERAIPIFVVLVGVLGGLLLLTILVLAMWKVGFFKRNRP (peptide, UniProt P08514 989-1029, looked up) [integrin αIIb(A958-P998) TM peptide W967F/W968V], the “KXY (association equilibrium constant on the mole fraction scale)” value stood at 6500 ± 200 and the dH is -15.7 ± 0.2 kcal/mol.

With B2, the “KXY (association equilibrium constant on the mole fraction scale)” value worked out at 4450 ± 80 and the dH is -13.1 ± 0.1 kcal/mol.

In the case of B3, the “KXY (association equilibrium constant on the mole fraction scale)” value came out at 4030 ± 90 and the dH is -12.6 ± 0.1 kcal/mol.

As for ALEERAIPIWWVLVGVLGGLLLLTILVLAMAKVGFFKRNRP (peptide, UniProt P08514 989-1029, looked up) [integrin αIIb(A958-P998) TM peptide W988A], the “KXY (association equilibrium constant on the mole fraction scale)” value came out at 3320 ± 70 and the dH was -17.3 ± 0.1 kcal/mol.

In the case of ALEERAIPIWVVLVGVLGGLLLLTILVLAMWKVGFFKRNRP (peptide, UniProt P08514 989-1029, looked up) [integrin αIIb(A958-P998) TM peptide W968V], the “KXY (association equilibrium constant on the mole fraction scale)” value was 13200 ± 600 and the dH was -14.3 ± 0.2 kcal/mol.

With ALEERAIPIAVVLVGVLGGLLLLTILVLAMWKVGFFKRNRP (peptide, UniProt P08514 989-1029, looked up) [integrin αIIb(A958-P998) TM peptide W967A/W968V], the “KXY (association equilibrium constant on the mole fraction scale)” value worked out at 6400 ± 200 and the dH is -18.4 ± 0.2 kcal/mol.

Take ALEERAIPIWWVLVGVLGGLLLLTILVLAMHKVGFFKRNRP (peptide, UniProt P08514 989-1029, looked up) [integrin αIIb(A958-P998) TM peptide W988H]: the “KXY (association equilibrium constant on the mole fraction scale)” value turned out to be 3540 ± 40 and the dH was -16.4 ± 0.1 kcal/mol.

Take ALEERAIPIYVVLVGVLGGLLLLTILVLAMWKVGFFKRNRP (peptide, UniProt P08514 989-1029, looked up) [integrin αIIb(A958-P998) TM peptide W967Y/W968V]: the “KXY (association equilibrium constant on the mole fraction scale)” value was determined as 9800 ± 400 and the dH is -14 ± 0.2 kcal/mol.

As for B4, the “KXY (association equilibrium constant on the mole fraction scale)” value is 4700 ± 100 and the dH is -13.7 ± 0.2 kcal/mol.

Take ALEERAIPIWWVLVGVLGGLLLLTILVLAMVKVGFFKRNRP (peptide, UniProt P08514 989-1029, looked up) [integrin αIIb(A958-P998) TM peptide W988V]: the “KXY (association equilibrium constant on the mole fraction scale)” value is 2900 ± 100 and the dH was -13.7 ± 0.2 kcal/mol.

For ALEERAIPIWWVLVGVLGGLLLLTILVLAMFKVGFFKRNRP (peptide, UniProt P08514 989-1029, looked up) [integrin αIIb(A958-P998) TM peptide W988F], the “KXY (association equilibrium constant on the mole fraction scale)” value is 1000 ± 20 and the dH is -16.4 ± 0.2 kcal/mol.

As to ALEERAIPIHVVLVGVLGGLLLLTILVLAMWKVGFFKRNRP (peptide, UniProt P08514 989-1029, looked up) [integrin αIIb(A958-P998) TM peptide W967H/W968V], the “KXY (association equilibrium constant on the mole fraction scale)” value is 7000 ± 200 and the dH was -14.9 ± 0.2 kcal/mol.

B5: the “KXY (association equilibrium constant on the mole fraction scale)” value turned out to be 2530 ± 50 and the dH was -15.4 ± 0.1 kcal/mol.

The next assay addresses T5, integrin β3(P685-F727) TM peptide C687S …. The assay is described as follows: ITC.
Regarding B1, the “KXY (association equilibrium constant on the mole fraction scale)” value was 820 ± 40 and the dH was -8.7 ± 0.2 kcal/mol.

The target in another assay is T6, integrin β3(P685-F727) TM peptide C687S …. The experiment in a line: ITC.
Take B1: the “KXY (association equilibrium constant on the mole fraction scale)” value is 1320 ± 40 and the dH was -14.2 ± 0.2 kcal/mol.

The next assay concerns the target T2, integrin β3(P685-F727) TM peptide C687S …. The experiment in a line: intrinsic tryptophan fluorescence emission.
On to ALEERAIPIVWVLVGVLGGLLLLTILVLAMHKVGFFKRNRP (peptide, UniProt P08514 989-1029, looked up) [integrin αIIb(A958-P998) TM peptide W988H/W967V], for which the binding result is given as “binds”.

The next assay has as its target T4, human integrin β3(P685-F727) TM peptide …. The experiment in a line: intrinsic tryptophan fluorescence emission.
On to ALEERAIPIVVVLVGVLGGLLLLTILVLAMHKVGFFKRNRP (peptide, UniProt P08514 989-1029, looked up) [integrin αIIb(A958-P998) TM peptide W967V/W968V/W988H], for which the binding result is given as “binds”.
